Data published in patent publication US20250115667A1.

Assays:
[1] = molecular target: Cytotoxic T-lymphocyte-associated protein 4 (CTLA4), human (human) (UniProt P16410); assay: cell-based or functional assay
[2] = molecular target: Programmed cell death protein 1 (PD1), human (human) (UniProt Q15116); assay: cell-based or functional assay

XmAb20717 (bispecific antibody) was tested, and the IL-2 secretion from SEB-stimulated human PBMC (ELISA), fold increase versus a mixture of XENP20111 and XENP20059 [1] was 1.6 fold and the IL-2 secretion from SEB-stimulated human PBMC (ELISA), fold increase versus a mixture of XENP20111 and XENP20059 [2] was 1.6 fold.
